# Experimental data as given in PMC3575545.
# Several values for one entry are separate records, joined by “and”; a condition that tells them apart may be missing. Equal entries are not always repeated.
# Experiments:
# [1] = target: SRP (Ffh bound to 4.5 S RNA) with DACM-labeled Ffh Cys235 (UniProt P0AGD7); assay: FRET or BRET
# [2] = target: acrylodan-labeled FtsY Cys356 (UniProt P10121); assay: other fluorescence titration
Substance,Kd [1] [nM],fold destabilisation of the early complex by SecYEG (against no SecYEG) [1] [fold],fold stabilisation of the activated complex by SecYEG (against no SecYEG) [2]
BODIPY-FL-labeled FtsY Cys487 (full-length FtsY) (from UniProt P10121 1-497) (receptor),162,> 15,
Signal recognition particle (SRP; Ffh bound to 4.5 S RNA) (from UniProt P0AGD7 1-453) (complex),,,2 fold and 4 fold
